Test results: patent publication US20230201308A1, “TREATMENT OF CORONAVIRUS INFECTION WITH […]” (Eiger Biopharmaceuticals, Inc., priority 2020, published 2023)
Where two headings read alike, the source gives them in different places.

Tested on: SARS-CoV-2
[1] = Treated within 5 days of symptom onset, n=800 vs placebo 879
[2] = Unvaccinated population, n=143 vs placebo 176
[3] = final, treatment ≤3 days of symptom onset
[4] = high-risk patients, pooled Brazil+Toronto
[5] = intention-to-treat, N = 931 vs placebo N = 1018
[6] = treatment within 3 days of symptom onset
[7] = unvaccinated patients, treatment within 3 days of symptoms
[8] = ≤3 days of symptoms before treatment, preliminary

B1: pegylated interferon lambda-1a (protein)
chain: MKPTTTGKGCHIGRFKSLSPQELASFKKARDALEESLKLKNWSCSSPVFPGNWDLRLLQVRERPVALEAELALTLKVLEAAAGPALEDVLDQPLHTLHHILSQLQACIQPQPTAGPRPRGRLHHWLHRLQEAPKKESAGCLEASVTFNLFRLLTRDLKYVADGNLSLRTSTHPEST
modifications: PEG
notes: 180 mcg subcutaneous injection
For B1, the “Hospitalization or ER (any duration) for COVID-19, RR (95% CrI) vs placebo” value [1] was 0.73 (0.56, 0.94), the “Hospitalization or ER ≥6 h for COVID-19, % of patients” value [1] was “(2.5%)” and the “Hospitalization or ER ≥6 h for COVID-19, Pr (Superiority)” value [1] was 1.000. For the same molecule, the “Hospitalization or ER ≥6 h for COVID-19, RR (95% CrI) vs placebo” value [1] was 0.45 (0.26, 0.72), the “Death due to COVID-19, % of patients” value [2] was 0 (0%) and the “Death due to COVID-19, RR (95% CrI) vs placebo” value [2] was 0.51 (0.02, 6.47). For the same molecule, the “Death or hospitalization due to COVID-19, % of patients” value [2] was 4.2%, the “Death or hospitalization due to COVID-19, RR (95% CrI) vs placebo” value [2] was 0.49 (0.19, 1.12) and the “Hospitalization for COVID-19, % of patients” value [2] was 4.2%. The “Hospitalization for COVID-19, RR (95% CrI) vs placebo” value [2] was 0.49 (0.19, 1.12), the “Hospitalization or ER (any duration) for COVID-19, % of patients” value [2] was 16.1% and the “Hospitalization or ER (any duration) for COVID-19, Pr (Superiority)” value [2] was 0.806. For the same molecule, the “Hospitalization or ER (any duration) for COVID-19, RR (95% CrI) vs placebo” value [2] was 0.82 (0.50, 1.29), the “Hospitalization or ER ≥6 h for COVID-19, % of patients” value [2] was 4.2% and the “Hospitalization or ER ≥6 h for COVID-19, Pr (Superiority)” value [2] was 0.967. For the same molecule, the “Hospitalization or ER ≥6 h for COVID-19, RR (95% CrI) vs placebo” value [2] was 0.46 (0.18, 1.05), the “deaths in the arm” value (early treated patients) was “no deaths” and the “COVID-19 deaths in the treatment arm” value (final ITT) was “one”. The “Hazard ratio, COVID-19-related hospitalization or death (all-cause death)” value (final ITT) was 0.59, the “hazard ratio, COVID-19 death” value (final ITT) was 0.22 and the “hazard ratio, risk of hospitalization” value (final ITT) was 0.57. For the same molecule, the “relative risk, COVID-19-related hospitalization alone” value (final ITT) was 0.57, the “risk reduction, COVID-19-related hospitalization or all-cause death” value (final ITT) was 41% and the “relative risk, primary outcome” value (final ITT, 931 vs placebo 1018) was 0.49. The “participants experiencing a primary outcome event, %” value (final ITT, n=931) was 2.7%, the “participants experiencing a primary outcome event, count” value (final ITT, n=931) was 25 of 931 and the “absolute risk reduction (with 95% Bayesian credible intervals) plotted, FIG. 14” value (final ITT, patients receiving peginterferon lambda) was 0.028 (0.018, 0.039). The “relative risk, primary outcome” value (final, treatment within 3 days of symptom onset) was 0.42, the “Hazard ratio, COVID-19-related hospitalization or death” value [3] was 0.35 and the “risk reduction, COVID-19-related hospitalization or death” value [3] was 65%. The “RR, All-cause mortality or Hospitalization” value (high-risk patients, Brazil) was 0.69, the “RR, Death or Hospitalization due to COVID-19” value (high-risk patients, Brazil) was 0.63 and the “RR, Hospitalization or ER visit>6 hours” value (high-risk patients, Brazil) was 0.49. The “probability of superiority (Pr), Hospitalization or ER visit>6 hours” value (high-risk patients, Brazil) was 0.990, the “Pr, Hospitalization or ER visit>6 hours” value [4] was 0.990 and the “RR, All-cause mortality or Hospitalization” value [4] was 0.69. The “RR, Death or Hospitalization due to COVID-19” value [4] was 0.63, the “RR, Hospitalization or ER visit>6 hours” value [4] was 0.49 and the “participants with primary outcome event, count” value (human, in vivo) was 23/929. For the same molecule, the “relative risk, primary outcome” value (human, in vivo) was 0.47, the “Days on mechanical ventilation: mean” value (intention-to-treat, N = 931) was 10.2 days and the “Death due to COVID-19: percentage of patients” value (intention-to-treat, N = 931) was “(0.1%)”. The “Death due to COVID-19: total (no. of patients)” value (intention-to-treat, N = 931) was 1, the “Death or hospitalization due to COVID-19: percentage of patients” value (intention-to-treat, N = 931) was “(2.4%)” and the “Death or hospitalization due to COVID-19: total (no. of patients)” value (intention-to-treat, N = 931) was 22. The “Hospitalization for COVID-19: percentage of patients” value (intention-to-treat, N = 931) was “(2.3%)”, the “Hospitalization for COVID-19: total (no. of patients)” value (intention-to-treat, N = 931) was 21 and the “Hospitalization or ER (any duration) for COVID-19: percentage of patients” value (intention-to-treat, N = 931) was “(10.6%)”. For the same molecule, the “Hospitalization or ER (any duration) for COVID-19: total (no. of patients)” value (intention-to-treat, N = 931) was 99, the “Hospitalization or ER visit >6 h for COVID-19: percentage of patients” value (intention-to-treat, N = 931) was “(2.7%)” and the “Hospitalization or ER visit >6 h for COVID-19: total (no. of patients)” value (intention-to-treat, N = 931) was 25. The “Days on mechanical ventilation: MD (95% CrI), estimated treatment effect” value [5] was −4.47 (−6.89, 3.09), the “Days on mechanical ventilation: Probability of Superiority (MD)” value [5] was 90.5 and the “Days to death for COVID-19: HR (95% CI), estimated treatment effect” value [5] was 0.22 (0.01, 1.64). For the same molecule, the “Days to death for COVID-19: Probability of Superiority (HR)” value [5] was 90.7, the “Days to death or hospitalization due to COVID-19: HR (95% CrI), estimated treatment effect” value [5] was 0.59 (0.35, 0.97) and the “Days to death or hospitalization due to COVID-19: Probability of Superiority (HR)” value [5] was 98.1. The “Days to hospitalization for COVID-19: HR (95% CrI), estimated treatment effect” value [5] was 0.57 (0.33, 0.95), the “Days to hospitalization for COVID-19: Probability of Superiority (HR)” value [5] was 98.5 and the “Days to hospitalization or ER visit >6 h for COVID-19: HR (95% CrI), estimated treatment effect” value [5] was 0.47 (0.29, 0.73). The “Days to hospitalization or ER visit >6 h for COVID-19: Probability of Superiority (HR)” value [5] was >99.9, the “Death due to COVID-19: Probability of Superiority (RR)” value [5] was 86.9 and the “Death due to COVID-19: RR (95% CrI), estimated treatment effect” value [5] was 0.39 (0.05, 1.95). For the same molecule, the “Death or hospitalization due to COVID-19: Probability of Superiority (RR)” value [5] was 97.7, the “Death or hospitalization due to COVID-19: RR (95% CrI), estimated treatment effect” value [5] was 0.61 (0.36, 0.99) and the “Hospitalization for COVID-19: Probability of Superiority (RR)” value [5] was 98.3. For the same molecule, the “Hospitalization for COVID-19: RR (95% CrI), estimated treatment effect” value [5] was 0.58 (0.34, 0.96), the “Hospitalization or ER (any duration) for COVID-19: Probability of Superiority (RR)” value [5] was 98.1 and the “Hospitalization or ER (any duration) for COVID-19: RR (95% CrI), estimated treatment effect” value [5] was 0.78 (0.61, 0.99). The “Hospitalization or ER visit >6 h for COVID-19: Probability of Superiority (RR)” value [5] was >99.9, the “Hospitalization or ER visit >6 h for COVID-19: RR (95% CrI), estimated treatment effect” value [5] was 0.49 (0.30, 0.76) and the “relative risk, primary outcome” value (per protocol analysis (25/931 vs 43/825)) was 0.52. For the same molecule, the “fewer COVID-19-related deaths than placebo” value (preliminary ITT) was 75%, the “hazard ratio, COVID-19-related hospitalization” value [6] was 0.35 and the “relative risk, all-cause death” value [6] was 0.19. The “risk reduction in all-cause death” value [6] was 81%, the “risk reduction of COVID-19-related hospitalization” value [6] was 65% and the “Hazard ratio vs. placebo” value [7] was 0.11. The “risk (hazard) reduction, COVID-19-related hospitalization or death” value [7] was 89%, the “Risk Reduction (95% BCI), Hospitalizations or Deaths” value [8] was 60% (17-82%) and the “Risk Reduction (95% BCI), Hospitalizations or ER visits” value [8] was 67% (19-79%). For the same molecule, the “Risk Reduction (95% BCI), Hospitalizations or Deaths” value (≤7 days of symptoms before treatment, preliminary) was 39% (1-64%).
